In US20090036368A1, “Therapeutic Combination” (HAMLET PHARMA AB, priority 2005, published 2009):

Tests used:
Jurkat cells [1] = assay: subG1 population / DNA fragmentation by flow cytometry after PI staining; format: cell-based; settings: for DNA fragmentation (sub G0/G1), substance alone: TSA 100 ng/ml or SAHA 2.5 μM
Description: Cell Cycle Analysis by cytometry—Cells were harvested, washed with PBS and then fixed in suspension in 75% cold ethanol at 4° C. for 2 hours at least. The samples were then centrifuged, washed with PBS, and treated with 0.25% triton X-100 for 10 minutes at room temperature. The cells were washed again, resuspended in 2.5 μg/ml of PI and 250 μg/ml Rnase A in PBS, and incubated at 4° C. overnight prior to measurement. Cellular fluorescence was measured using the Facscalibur flow cytometry (Becton Dickinson, San Jose, Calif.). The simple-cell populations were determinated on the basis of their fluorescence-intensity values FL2-A and FL2-W.
The effects of HAMLET on DNA fragmentation were compared between untreated cells and those pre-treated with TSA to increase acetylation. Sub G0/G1 DNA fragmentation was quantified by flow cytometry using the methodology as described in Example 1.
(§1) Cells in medium were used as controls.

A459 cells = assay: subG1 DNA fragmentation by flow cytometry in A459 cells; format: cell-based; settings: TSA 100 ng/ml overnight, then HAMLET 30 μM one hour; data not shown
Description: In addition, non confluent A459 cells were treated with or without TSA 100 ng/ml overnight. Then HAMLET was added for one hour at 30 μM. As before, DNA fragmentation was followed both by flow cytometry. Following PI staining (cf. Materials and methods), subG1 populations were quantified and presented as percent of the total population.

[2] = viability by trypan blue exclusion (Vi-Cell XR); settings: human, Jurkat cells
Description: (§2) Jurkat cells were first pretreated with or without TSA 100 ng/ml during 3 or 18H and then treated by HAMLET during 3H. Viability was assessed by trypan blue exclusion using the Vi-Cell XR apparatus.
(§3) To examine if HDAC inhibitors might influence the effects of HAMLET on the viability of tumour cells, Jurkat cells were pretreated with HDAC inhibitors TSA 3 hours or 18 h and then exposed to HAMLET (FIG. 5). The cellular response to the combined treatment was compared to the response to TSA alone (3 h or 18 h) and to HAMLET (3 h). Cells in medium were used as controls. The cellular response was quantified by flow cytometry and the subG1 population was used as a measure of chromatin fragmentation and cell death (FIGS. 5 and 6A). In parallel, cell viability was assessed by ATP levels (FIG. 6B) and trypan blue exclusion (FIG. 6C).

[3] = test system: HeLa cells expressing GFP-tagged Histone H4; assay: acetyl histone H4 and nuclear morphology by confocal microscopy; format: cell-based; settings: TSA 100 ng/ml; vs control cells
Description: Acetyl histone H4 by confocal microscopy—Hela Cells were grown in Lab-Tek Chamber slides. Cells were washed twice in PBS, and then fixed 10 minutes in PBS formaldehyde 4%. The samples were then centrifuged, washed with PBS, and treated with 0.1% triton X-100 for 2 minutes at room temperature. After washes, cells were incubated for at least 30 min in swine serum 1% (DAKO, Solna, Sweden) in PBS. Then cells were incubated for 3 hours at room temperature in the presence of rabbit polyclonal antibody to human acetyl Histone H4 (Upstate), diluted 1/500 containing 1% BSA. Cells were then washed and incubated with an Alexa633-conjugated goat anti-rabbit antibody (Invitrogen) diluted 1/200 in PBS containing 1% BSA for 2 h. The cells were washed 3×5 min. in PBS prior to evaluation in an LSM 510 META confocal microscope (Carl Zeiss, Germany) with a 63× objective. The frequency of each chromatin patterns is shown in fold of control cells staining after counting a minimum of 30 cells in each experiment.
The effect of HAMLET and TSA on the acetylation of Histone H4 was further examined by confocal microscopy of adherent HeLa cells expressing GFP-tagged Histone H4. […] The acetylation level of histone H4 in the control cells was very weak (FIG. 9A).

[4] = test system: acetyl histone H4 in Jurkat cells; assay: acetyl histone H4 by flow cytometry; format: cell-based; settings: for histone acetylation (Example 5): TSA 3 hours or 18 h, HAMLET 3 h, total population
Description: Acetyl histone H4 and Cell Cycle Analysis by cytometry—Cells were harvested, washed with PBS and then fixed in suspension in 75% cold ethanol at 4° C. for 2 hours at least. The samples were then centrifuged, washed with PBS, and treated with 0.25% triton X-100 for 10 minutes at room temperature. After addition of 3 ml of PBS and centrifugation, the cells were incubated for at least 30 min in swine serum 1% (DAKO, Solna, Sweden) in PBS. After addition of 3 ml of PBS and centrifugation, the cells were incubated for 3 hours at room temperature in the presence of rabbit polyclonal anti-body to human acetyl Histone H4 (Upstate), diluted 1/500 containing 1% BSA. Cells were then washed and incubated with a FITC-conjugated swine anti-rabbit antibody (DAKO, Solna, Sweden) diluted 1/20 in PBS containing 1% BSA for 2 h. The cells were washed again, resuspended in 2.5 μg/ml of PI and 250 μg/ml Rnase A in PBS, and incubated at 4° C. overnight prior to measurement. The control was prepared identically as described above, except the presence of the histone antibody. Cellular fluorescence was measured using the Facscalibur flow cytometry (Becton Dickinson, San Jose, Calif.). The simple-cell populations were determined on the basis of their fluorescence-intensity values FL2-A and FL2-W. Then red and green emissions from each cell were separated and quantified using the standard optics of the cytometer.
The level of chromatin acetylation in Jurkat cells was quantified by flow cytometry, using specific antibodies to acetylated histone H4 (FIG. 1). To increase acetylation, the cells were treated with the HDAC inhibitor TSA (FIG. 1C, FIG. 1E line 3).
The inhibition of HDAC causes an accumulation of acetylated histones. The level of acetyl histone H4 in Jurkat cells was quantified by flow cytometry after staining with specific antibodies. The cells were counterstained with propidium iodide to visualize the change in chromatin levels. Results are presented as density plot diagrams representing the DNA content on the Y-axis between four populations of cells (Sub1, G1, S, and G2), and the degree of acetylation of Histone H4 on the X-axis.

Jurkat cells [5] = assay: viability by trypan blue exclusion (Vi-Cell XR); settings: HAMLET 3 h, in comparison with control
Description: as §2, §3

Jurkat cells [6] = assay: cell viability by ATP levels; format: cell-based; settings: 3 h exposure, vs control cells
Description: ATP monitoring reagent (AMR) was purchased from Cambrex (Wokingham, U.K.) in the form of a ViaLight™ HS kit and was reconstituted according to the manufacturers guidelines.
as §1

[7] = test system: tailless histones and DNA; assay: nucleosome assembly from tailless histones and DNA; format: biochemical, Drosophila melanogaster; settings: radiolabelled 146 bp DNA fragments, gel
Description: FIG. 4. Effects of HAMLET on a mixture of tailless histones and DNA. HAMLET was added to a mixture of radiolabelled 146 bp DNA fragments and tailless histones. In the absence of HAMLET, no nucleosomes are formed (lane 1). […] Nucleosome assembly on the 146 bp fragment results in one single nucleosome species, designated N. At higher concentrations of HAMLET, more nucleosomes were formed and HAMLET associated with them to form a second band in the gel. HAMLET also dissolved the unspecific histone-DNA aggregated seen in the wells.
Histones—Native, folded histones were obtained from duck erythrocyte nuclei. Native or tailless Drosophila melanogaster histones were expressed in E. coli, purified and assembled into octamers. The fold and functional integrity of the histones were confirmed by nucleosome assembly on DNA.
Chromatin assembly—To generate nucleosomes, histone octamers (recombinant or purified from cells) were assembled on linear DNA according to the “salt jump” method (Stein, 1979). ^32P-labeled 256 bp fragments and carrier DNA (supercoiled plasmid DNA, final DNA concentration 200 μg/ml) were mixed with histones (histone:DNA weight ratio 0.4-0.6) in 2 M NaCl, 10 mM Tris-HCl (pH 7.5). The mixture was incubated for 10 min at 37° C., diluted to 0.5 M NaCl, incubated at the same temperature for 30 min, and dialyzed at 4° C. against 10 mM Tris-HCl (pH 7.5) and 1 mM EDTA for 2 h. […]

[8] = bovine α-lactalbumin mutants, Permyakov et al. 2001; cited from earlier work
[9] = biological activity of α-lactalbumin mutants in apo-conformation; settings: mutant proteins stable in apo-conformation at physiologic temperatures, without cofactor

Molecule | DNA fragmentation (sub G0/G1), substance alone (Jurkat cells [1]; HAMLET 1 hour) | acetylation of Histone H4 [3] | intensity of the GFP (histone H4) staining [3] | size of the nuclei [3] | histone acetylation (Example 5) [4] | calcium binding [8] | biological activity [9] | also measured
O=C(CCCCCCC(=O)Nc1ccccc1)NO [SAHA, suberoylanilide hydroxamic acid] | did not trigger DNA fragmentation |  |  |  |  |  |  | 
CC(/C=C/C(=O)NO)=C\[C@@H](C)C(=O)c1ccc(N(C)C)cc1 [TSA, Trichostatin A] | did not stimulate DNA fragmentation | increase in the staining of the acetylation of histone H4 | slight increase | slight increase in the size of the nuclei | time dependent increase in histone acetylation |  |  | cell death (subG1) (A459 cells): significantly increased cell death; cytotoxicity at 18 h, 100 ng/ml [2]: 24.9%; subG1 population (Jurkat cells [1]; TSA alone, 18 h): 26.13%; HAMLET-induced DNA fragmentation after HDAC inhibitor pre-treatment (Jurkat cells [1]; pre-treated with TSA 100 ng/ml or SAHA 2.5 μM for 2 hours, HAMLET 1 hour): enhanced HAMLET-induced DNA fragmentation; time of maximal effect on acetylation ([4]; TSA treatment): two hours; acetylation of histone H4, increase vs control ([4]; increased concentration of TSA without HAMLET, intact cells (subG1 removed)): 2 fold
HAMLET (protein, UniProt P00709 20-142, looked up, complex with oleic acid) Alpha-lactalbumin: KQFTKCELSQLLKDIDGYGGIALPELICTMFHTSGYDTQAIVENNESTEYGLFQISNKLWCKSSQVPQSRNICDISCDKFLDDDITDDIMCAKKILDIKGIDYWLAHKALCTEKLEQWLCEKL | induce DNA fragmentation | increase in the acetylation of Histone H4 | increase of the intensity of the GFP staining | marked decrease in the size of the nuclei | did not change the degree of acetylation |  |  | loss of viability by trypan blue exclusion (Jurkat cells [5]): 19.7%; decrease in ATP levels (Jurkat cells [6]; HAMLET 0.1 mg/ml): 9.2%; decrease in ATP levels (Jurkat cells [6]; HAMLET 0.2 mg/ml): 41.17%; decrease in ATP levels (Jurkat cells [6]; HAMLET 0.3 mg/ml): 85.71%; effect on mixture of tailless histones and 146 bp DNA [7]: assembly of nucleosomes; subG1 population (Jurkat cells [1]; HAMLET alone, 3 h): 14.58%; histone H4 acetylation (Example 1) ([4]; low concentrations of HAMLET 1H, TSA 100 ng/ml 2H, vs medium control): decrease in histone H4 acetylation
D87A: bovine α-lactalbumin mutant, aspartic acid at position 87 replaced by alanine (protein, UniProt P00711 20-142, looked up, variant D87A) Alpha-lactalbumin: EQLTKCEVFRELKDLKGYGGVSLPEWVCTTFHTSGYDTQAIVQNNDSTEYGLFQINNKIWCKDDQNPHSSNICNISCDKFLDDDLTADIMCVKKILDKVGINYWLAHKALCSEKLDQWLCEKL |  |  |  |  |  | totally abolish calcium binding | biologically inactive | 
D87N: bovine α-lactalbumin mutant, aspartic acid at position 87 replaced by asparagine (protein, UniProt P00711 20-142, looked up, variant D87N) Alpha-lactalbumin: EQLTKCEVFRELKDLKGYGGVSLPEWVCTTFHTSGYDTQAIVQNNDSTEYGLFQINNKIWCKDDQNPHSSNICNISCDKFLDDDLTNDIMCVKKILDKVGINYWLAHKALCSEKLDQWLCEKL |  |  |  |  |  | still bound calcium but with lower affinity | biologically inactive | 
